The values that follow come from article doi:10.1101/767665.

Where two headings read alike, the source gives them in different places.

In test [1] the target is heliorhodopsin 48C12 (actinobacterium (fosmid from freshwater lake Kinneret)). The test can be described thus: crystal structure.
The target is the same in test [2]. Nature of the test: crystal structure. The source holds these as a separate data set.

What is called stoichiometry N is a count of units in the complex or per binding partner. Consider “heliorhodopsin 48C12 (from UniProt A0A2R4S913 1-256) (natural protein)”, for which the stoichiometry N in test [1] and in test [2] was 2 in each case.
